In US11427643B2, “Targeted protein degradation” (GLAXOSMITHKLINE INTELLECTUAL PROPERTY DEVELOPMENT LIMITED, priority 2017, dated 2022):

Legend:
NFAT-luc2 Jurkat cells = experiment: Lenalidomide-induced degradation of anti-BCMA CAR constructs transfected in Jurkat cells (flow cytometry, BCMA-Fc staining); type: cell-based; details: 10 μM lenalidomide vs DMSO, 24 hour, FIG. 5
Method: NFAT-luc2 Jurkat cells (Promega) to a density of 2×10^5 cells/ml were cultured in RPMI medium 1640 (1×) without L-glutamine with phenol red (Gibco), 10% (v/v) Fetal Bovine Serum (FBS) Heat-Inactivated (Gibco), 1% (v/v) Minimum essential medium non-essential amino acids (MEM NEAA) (ThermoFisher), 1% (v/v) Sodium Pyruvate (Sigma), 1% (v/v) L-Glutamine (Gibco). 20 μg of plasmid DNA was mixed with 8×10^6 NFAT-luc2 Jurkat cells and cells were transfected using the 4D-Nucleofector (Lonza) with cell Line SE Nucleofector kit (Lonza) by following manufacturer instructions with program CL-120. Cells were incubated at 37° C. with 5% CO2 for 48 h. Lenalidomide at a stock concentration of 10 mM in 100% DMSO was diluted in Jurkat media to achieve a stock concentration of 250 μM. Using the 250 μM stock, NFAT-luc2 Jurkat cells were incubated at a final compound concentration of 10 μM or 0 μM (DMSO in media) for 24 hour at 37° C. with 5% CO2. Final DMSO concentration was 0.1% in all wells. Cells were then stained with AlexaFluor 647 conjugated BCMA-Fc to label the anti-BCMA CAR. Measurements were made using a Cytoflex S (Beckman Coulter) and data analysed using FlowJo.

[1] = tested on: primary T-cells co-cultured with ARH-77-10B5 cells; experiment: Cytokine release from CAR-transduced primary T-cells co-cultured with BCMA-expressing ARH-77-10B5 cells, with or without lenalidomide (MSD V-plex); type: cell-based, human; details: 10 μM lenalidomide compared with no lenalidomide treatment; after antigen presentation, 24 h co-culture 1:1 with ARH-77-10B5; FIG. 7
Method: For lentiviral vector production, 3.0×10^7 LentiX 293T (HEK 293T) cells were seeded in 20 mL DMEM (Gibco) and were incubated overnight at 37° C. with 5% CO2. LentiX cells were transfected by mixing, for example, 21 μg of transfer vector containing the construct, 3.75 μg ViraSafe pRSV-Rev, 5.25 μg ViraSafe pCMV-VSVG, 7.5 μg ViraSafe pCgp V-(gag-pol), 75 μg jetPRIME (Polyplus) and […] jetPRIME Buffer (Polyplus). After 2 days, supernatants were clarified and virus was concentrated and purified by ultracentrifugation on a 20% sucrose cushion using Ultrapure sucrose (ThermoFisher) in 50 ml Oak Ridge PPCO ultracentrifugation tubes (ThermoFisher). Lentiviral vectors were produced for CONSTRUCT 4 and CONSTRUCT 5 using the method described above. […]
7 days after transduction, lenalidomide at a stock concentration of 10 mM in 100% DMSO was diluted in TEXMacs media to achieve a stock concentration of 250 μM, and 5×10^4 T-cells were incubated at a final compound concentration of 10 μM or 0 μM (DMSO in media) for 16 h at 37° C. with 5% CO2. […] Supernatants were analysed for cytokine levels using MSD V-plex Proinflammatory Panel 1 Human Kit (MSD) and MSD Sector Imager (MSD).

B1: CONSTRUCT 4: conventional anti-BCMA CAR: scFv, CD8a hinge and transmembrane, 4-1BB co-stimulatory, CD3 intracellular domains; no degron (control) (protein)
chain: MALPVTALLLPLALLLHAARPQVQLVQSGAEVKKPGSSVKVSCKGSGYTFTNYWMHWVRQAPGQGLEWIGATYRGHSDTYYNQKFKGRATLTADTSTSTAYMELSSLRSEDTAVYYCTRGAIYDGYDVLDNWGQGTLVTVSSGGGGSGGGGSGGGGSGGGGSDIQMTQSPSSLSASVGDRVTITCSASQDISNYLNWYQQKPGKAPKLLIYYTSNLHSGVPSRFSGSGSGTDFTLTISSLQPEDFATYYCQQYRKLPWTFGQGTKLEIKRFVPVFLPAKPTTTPAPRPPTPAPTIASQPLSLRPEACRPAAGGAVHTRGLDFACDIYIWAPLAGTCGVLLLSLVITLYCNHRNKRGRKKLLYIFKQPFMRPVQTTQEEDGCSCRFPEEEEGGCELRVKFSRSADAPAYQQGQNQLYNELNLGRREEYDVLDKRRGRDPEMGGKPRRKNPQEGLYNELQKDKMAEAYSEIGMKGERRRGKGHDGLYQGLSTATKDTYDALHMQALPPR
modifications: Construct 4 Amino Acid Sequence
- expression level of CAR molecules on the surface of Jurkat cells (NFAT-luc2 Jurkat cells): unaffected
- TNFα, IL2 and IFN-γ levels in T-cell supernatants [1]: increased levels of cytokines concentrations
